One may read the stoichiometry N as the number of molecules, sites or subunits per partner or assembly.

One experiment deals with RPS4-HF (Arabidopsis) (UniProt Q9XGM3). Nature of the experiment: co-IP.
The target of the next experiment is YFP-RPS4 (Arabidopsis) (UniProt Q9XGM3). As to the kind of experiment: co-IP.

For the substance RRS1-R-GFP (receptor), in the experiment with RPS4-HF (Arabidopsis), the stoichiometry N was found to be 1.
RRS1-R-HF (receptor): the stoichiometry N with YFP-RPS4 (Arabidopsis) was determined as 1.

The values are drawn from doi:10.1101/2025.04.11.646618.
